Oligomerization rate and stoichiometry N data for 2 substances are collected here from article doi:10.1101/2021.07.12.452133.

A word on the stoichiometry N: it is a count of units in the complex or per binding partner.

The target in assay [1] is MBP-tagged delVirB4_CTn4 (NH2-terminally truncated VirB4-like ATPase of the CTn4 locus, C. difficile 630) (Clostridioides difficile strain 630). Nature of the assay: SEC.
Assay [2] has the same target. The experiment in a line: negative-stain transmission electron microscopy.
Assay [3] has as its target MBP-tagged delVirD4_CTn4 (NH2-terminally truncated VirD4-like ATPase of the CTn4 locus, C. difficile 630) (Clostridioides difficile strain 630). Nature of the assay: SEC. For orientation: SEC sorts molecules by how far they enter the pores of the column.
Assay [4] has the same target. Nature of the assay: negative-stain transmission electron microscopy.

In assay [1], “MBP-tagged delVirB4_CTn4 (NH2-terminally truncated VirB4-like ATPase of the CTn4 locus, C. difficile 630) (domain or fragment)” registered an oligomerization rate of 100% and a stoichiometry N above 6 monomers. In assay [2], this substance yielded a stoichiometry N of 6 to 7.

In the case of “MBP-tagged delVirD4_CTn4 (NH2-terminally truncated VirD4-like ATPase of the CTn4 locus, C. difficile 630) (domain or fragment)”, in assay [3], the oligomerization rate was 100% and the stoichiometry N is above 6 monomers. In assay [4], this substance had a stoichiometry N of 6 to 7.
